Data from PMC12158487, “Tracing the aggregation pathway of the scaffold protein DISC1: Structural implications for chronic mental illnesses” (Journal of Structural Biology: X, 2025).
Numbering of substitutions follows the chain as printed. Names may count otherwise. Ends that are not written are not given here.

What was measured:
[1] = target: DISC1 C-region L807-frameshift, His6 fusion (human) (UniProt Q9NRI5); assay: ITC; 10 µM His-tagged protein alone in the 200 µL cell, 20 °C, stirred at 300 rpm; heat flow of self-association followed in real time, peak area integrated
[2] = target: the molecule itself; assay: as above
[3] = target: T1, DISC1 C-region (WT), His6 fusion (human), Q9NRI5; assay: as above; settings: remark: other sources report otherwise
T1 chain: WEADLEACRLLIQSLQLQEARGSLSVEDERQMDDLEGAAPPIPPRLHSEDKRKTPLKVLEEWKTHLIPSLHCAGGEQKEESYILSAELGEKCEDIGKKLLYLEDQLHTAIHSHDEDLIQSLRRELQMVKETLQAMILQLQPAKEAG

[4] = target: T1, DISC1 C-region (WT), His6 fusion …; assay: ITC; 10 µM His-tagged WT-C-region alone in the cell, 30 °C; heat flow of self-association followed in real time, peak area integrated; settings: remark: other sources report otherwise
[5] = target: T1, DISC1 C-region (WT), His6 fusion …; assay: dynamic light scattering; 10 µM protein, 20 °C, 500 µL sample, centrifuged at 21,000 x g before measurement; apparent hydrodynamic radii followed over time; settings: remark: other sources report otherwise
[6] = target: the molecule itself; assay: ITC; one-week-old sample of S704C, 10 µM protein alone in the cell, 20 °C; heat flow of self-association followed in real time, peak area integrated

Molecule “DISC1 C-region L807-frameshift, His6 fusion (from UniProt Q9NRI5 691-807) (domain or fragment)” has a dH [1] of -1060 kcal/mol.

B1: DISC1 β-core (717-761), His6 fusion (domain or fragment, human, UniProt Q9NRI5 717-761, looked up)
chain: EDERQMDDLEGAAPPIPPRLHSEDKRKTPLKVLEEWKTHLIPSLH
modifications: also: His6 fusion, end not given here
notes: 717-761, numbered in the context of the full-length protein; also called β-core peptide; source: E. coli BL21 (DE3) pLysE T1R, purified (Co2+-NTA)
B1 gave a dH [2] of -843 kcal/mol.

B2: DISC1 C-region (WT), His6 fusion, Q9NRI5 691-836 (domain or fragment)
chain: T1 chain
In the case of B2, the dH [3] is reported as -547 kcal/mol, the dH [4] is reported as -264 kcal/mol and the stoichiometry N [5] is reported as 4.

B3: DISC1 C-region S713E, His6 fusion (domain or fragment, human, UniProt Q9NRI5 691-836, looked up)
chain: T1 chain with S23E
notes: Disrupted in schizophrenia 1 (DISC1), human, C-region, res; 691-836, numbered in the context of the full-length protein, with S713E; in the cited work it may be a phosphomimetic made by people (surmise); also called S713E C-region variant; source: E. coli BL21 (DE3) pLysE T1R, purified (Co2+-NTA)
In the case of B3, the dH [2] is reported as -512 kcal/mol.

B4: DISC1 C-region S704C, His6 fusion (domain or fragment, human, UniProt Q9NRI5 691-836, looked up)
chain: T1 chain with S14C
notes: Disrupted in schizophrenia 1 (DISC1), human, C-region, res; 691-836, numbered in the context of the full-length protein, with S704C; also called S704C C-region; source: E. coli BL21 (DE3) pLysE T1R, purified (Co2+-NTA)
Work on B4 yielded a dH [2] of -240 kcal/mol and a dH [6] of -869 kcal/mol.
